According to publication PMC7210945, “The pivot point arginines identified in the β-pinwheel structure of C-terminal domain from Salmonella Typhi DNA Gyrase A subunit”:

Key:
[1] = molecular target: Salmonella enterica serovar Typhi DNA Gyrase A C-terminal domain (StGyrA-CTD) (Salmonella enterica serovar Typhi (CT18 strain)); assay: SEC
[2] = molecular target: StGyrA-CTD R817A R817A (Salmonella enterica serovar Typhi CT18) (UniProt A0A1U7FVV6); assay: fluorescence binding
[3] = molecular target: StGyrA-CTD R712A R712A (Salmonella enterica serovar Typhi CT18) (UniProt A0A1U7FVV6); assay: fluorescence binding
[4] = molecular target: StGyrA-CTD R766A R766A (Salmonella enterica serovar Typhi CT18) (UniProt A0A1U7FVV6); assay: fluorescence binding
[5] = molecular target: StGyrA-CTD R716A R716A (Salmonella enterica serovar Typhi CT18) (UniProt A0A1U7FVV6); assay: fluorescence binding
[6] = molecular target: StGyrA-CTD R667A R667A (Salmonella enterica serovar Typhi CT18) (UniProt A0A1U7FVV6); assay: fluorescence binding
StGyrA-CTD D692A = StGyrA-CTD D692A (Salmonella enterica serovar Typhi CT18, UniProt A0A1U7FVV6 530-840, D692A); assay: fluorescence binding; 1 mM Mg2+; conditions: protein: recombinant; tags: C-terminal 6xHis; blunt
StGyrA-CTD wild type = StGyrA-CTD wild type (Salmonella enterica serovar Typhi CT18, UniProt A0A1U7FVV6 530-840); assay: fluorescence binding; 1 mM Mg2+; conditions: protein: recombinant; tags: C-terminal 6xHis (pET-28a); chain copies: 2; blunt
StGyrA-CTD R612A = StGyrA-CTD R612A (Salmonella enterica serovar Typhi CT18, UniProt A0A1U7FVV6 530-840, R612A); assay: fluorescence binding; 1 mM Mg2+; text gives 220-250 nM for other mutants; conditions: protein: recombinant; tags: C-terminal 6xHis; blunt

In the case of “Salmonella enterica serovar Typhi DNA Gyrase A C-terminal domain (StGyrA-CTD) (domain or fragment)”, the stoichiometry N [1] is reported as 2.

“TAAAGTCTAGAGACACGCATAGTCAATGACGGAGTTA (double strand) [FAM-37 bp DNA]” gave a Kd [2] of 204 nM, a Kd [3] of 231 nM and a Kd [4] of 221 nM. For the same molecule, the Kd [5] was 277 nM and the Kd [6] was 263 nM.

B1: FAM-37 bp DNA (dsDNA)
DNA 1: TAAAGTCTAGAGACACGCATAGTCAATGACGGAGTTA
DNA 2: TAACTCCGTCATTGACTATGCGTGTCTCTAGACTTTA
Molecule B1 has a Kd (StGyrA-CTD D692A) of 129 nM, a Kd (StGyrA-CTD wild type) of 122 nM and a Kd (StGyrA-CTD R612A) of 135 nM.
